Source: publication doi:10.1101/2020.10.21.348805 (bioRxiv, 2020)

Target: T1, GST-OsDMI3 (rice (Oryza sativa), UniProt Q6AVM3 1-516)
T1 sequence (looked up): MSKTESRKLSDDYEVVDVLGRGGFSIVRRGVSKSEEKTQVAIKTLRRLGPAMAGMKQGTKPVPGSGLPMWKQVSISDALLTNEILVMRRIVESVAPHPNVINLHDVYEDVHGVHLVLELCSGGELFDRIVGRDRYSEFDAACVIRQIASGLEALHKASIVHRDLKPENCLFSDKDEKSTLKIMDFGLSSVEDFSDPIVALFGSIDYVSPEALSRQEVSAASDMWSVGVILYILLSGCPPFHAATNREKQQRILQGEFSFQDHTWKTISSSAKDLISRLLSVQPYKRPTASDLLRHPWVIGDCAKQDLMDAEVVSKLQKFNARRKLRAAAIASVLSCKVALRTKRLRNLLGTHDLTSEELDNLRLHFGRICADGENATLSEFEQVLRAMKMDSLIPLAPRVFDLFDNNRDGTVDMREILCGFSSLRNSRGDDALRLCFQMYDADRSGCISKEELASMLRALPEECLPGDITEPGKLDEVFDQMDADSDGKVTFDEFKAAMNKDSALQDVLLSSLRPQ
Assay: pull-down

binding result: binds
B1: His-OsMKK6 (enzyme, rice (Oryza sativa), UniProt Q5QN75 1-355, looked up)
chain: MRGKKPHKELKLSVPAQETPVDKFLTASGTFKDGELRLNQRGLQLISEETADEPQSTNLKVEDVQLSMDDLEMIQVIGKGSGGIVQLVRHKWVGTLYALKGIQMNIQEAVRKQIVQELKINQATQNAHIVLCHQSFYHNGVIYLVLEYMDRGSLADIIKQVKTILEPYLAVLCKQVLEGLLYLHHERHVIHRDIKPSNLLVNRKGEVKITDFGVSAVLASSMGQRDTFVGTYNYMAPERISGSSYDYKSDIWSLGLVILECAIGRFPYIPSEGEGWLSFYELLEAIVDQPPPSAPADQFSPEFCAFISSCIQKDPAERMSASELLNHPFIKKFEDKDLDLRILVESLEPPMNISE
